Assay results taken from US20210388081A1 (Memorial Sloan Kettering, published 2021).
Numbering of substitutions follows the chain as printed.

T1: FcRL4, overexpressed on 3T3 cells (UniProt Q96PJ5 20-515, limits assumed)
T1 construct: whole, on cells
T1 sequence (looked up): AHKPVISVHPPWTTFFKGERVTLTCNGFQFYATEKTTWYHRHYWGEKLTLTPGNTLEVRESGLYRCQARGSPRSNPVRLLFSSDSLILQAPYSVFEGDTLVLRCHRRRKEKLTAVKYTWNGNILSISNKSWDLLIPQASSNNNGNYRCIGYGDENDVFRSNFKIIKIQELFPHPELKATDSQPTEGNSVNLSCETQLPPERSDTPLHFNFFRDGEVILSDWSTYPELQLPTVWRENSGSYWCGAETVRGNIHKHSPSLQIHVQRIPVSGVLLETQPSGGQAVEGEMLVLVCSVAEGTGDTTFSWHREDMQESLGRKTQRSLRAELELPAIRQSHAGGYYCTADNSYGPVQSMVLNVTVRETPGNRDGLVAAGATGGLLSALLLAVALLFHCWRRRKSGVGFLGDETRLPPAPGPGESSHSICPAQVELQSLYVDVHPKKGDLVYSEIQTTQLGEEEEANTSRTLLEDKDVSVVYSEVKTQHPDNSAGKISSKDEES

T2: FcRL3, overexpressed on 3T3 cells (UniProt Q96P31 18-734, limits assumed)
T2 construct: whole, on cells
T2 sequence (looked up): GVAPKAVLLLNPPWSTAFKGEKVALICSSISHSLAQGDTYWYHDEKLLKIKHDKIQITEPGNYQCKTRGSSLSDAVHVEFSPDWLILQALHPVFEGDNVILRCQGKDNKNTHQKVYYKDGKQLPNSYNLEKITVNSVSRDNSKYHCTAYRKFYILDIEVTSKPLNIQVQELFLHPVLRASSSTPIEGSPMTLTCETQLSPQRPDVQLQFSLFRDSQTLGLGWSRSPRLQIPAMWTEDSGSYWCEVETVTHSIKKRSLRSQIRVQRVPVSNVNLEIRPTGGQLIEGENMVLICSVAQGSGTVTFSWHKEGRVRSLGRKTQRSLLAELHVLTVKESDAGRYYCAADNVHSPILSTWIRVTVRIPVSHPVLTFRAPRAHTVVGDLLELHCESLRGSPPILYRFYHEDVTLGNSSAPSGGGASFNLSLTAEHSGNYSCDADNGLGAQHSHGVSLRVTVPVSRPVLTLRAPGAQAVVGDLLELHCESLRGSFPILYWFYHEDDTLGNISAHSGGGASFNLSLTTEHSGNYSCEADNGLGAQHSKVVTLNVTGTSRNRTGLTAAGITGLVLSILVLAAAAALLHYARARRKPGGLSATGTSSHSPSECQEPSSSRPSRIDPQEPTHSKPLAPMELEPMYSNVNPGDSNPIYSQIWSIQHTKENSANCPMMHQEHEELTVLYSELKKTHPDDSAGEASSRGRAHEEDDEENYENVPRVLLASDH

B1: ET200-026 (scFv)
scFv: NFMLTQPHSVSESPGKTVTISCTGSSGSIASNYVQWYQQRPGSAPTTVIYEDNQRPSGVPDRFSGSIDSSSNSASLTISGLKTEDEADYYCQSYDSSNWVFGGGTKLTVLGSRGGGGSGGGGSGGGGSLEMAEVQLVQSGAEVKKPGSSVKVSCKASGGTFSSYAISWVRQAPGQGLEWMGGIIPIFGTANYAQKFQGRVTITADESTSTAYMELSSLRSEDTAVYYCARNNHYYNDYWGQGTLVTVSSTSGQAGQHHHHHHGAYPYDVPDYAS
notes: screened as phage clone; entry is VL-linker-VH-His tag-HA tag
B2: ET200-035 (scFv)
scFv: B1 scFv with G24R, S97T, E133Q, N231Y, H233Y, Y235F
notes: as for B1
B3: ET200-027 (scFv)
scFv: QSVLTQPPSVSGAPGQGVTIPCTGSSSNIGAGYDVHWYQQLPGTAPKLLIYGNNNRPSGVPDRFSGSRSGSSASLAITGLQAEDEADYYCQSYDSSLSDVVFGGGTKVTVLGSRGGGGSGGGGSGGGGSLEMAEVQLVQSGAEVKKPGATVKISCKVSGYTFTDYYMHWVQQAPGKGLEWMGLVDPEDGETIYAEKFQGRVTITADTSTDTAYMELSSLRSEDTAVYYCARYWSYSFDYLYMPEGNDWWGQGTLVTVSSTSGQAGQHHHHHHGAYPYDVPDYAS
notes: as for B1
B4: ET200-028 (scFv)
scFv: QSVLTQPPAASGTPGQRVTISCSGGVSNIGSGALNWYQQLPGTAPKLLIYSYNQRPSGVSDRFSGSRSATSASLAISGLQSEDEADYYCATWDDSVNGWVFGGGTKLTVLGSRGGGGSGGGGSGGGGSLEMAQVQLVQSGAEVKKPGDSVKVSCKPSGYNFLNYGINWVRQAPGQGLEWMGWISTYTGNTNYAQKLQGRVTFTTDTSTSTAYMEMRSLRSDDTAVYYCARDLYYYEGVDYWGQGTLVTVSSTSGQAGQHHHHHHGAYPYDVPDYAS
notes: as for B1
B5: ET200-029 (scFv)
scFv: QAVLTQPPSVSVAPGKTARVTCGGNNIGSESVHWYQQKPGQAPVLVIYYDTDRPSGIPERFSGSHSGTTATLTISRVEAGDEADYYCQVWDSSRDHVVFGGGTKLTVLGSRGGGGSGGGGSGGGGSLEMAQVQLVQSGGGVVQPGRSLRLSCAASGFTFSSYAMHWVRQAPGKGLEWVAVISYDGSNKYYADSVKGLFTISRDNSKNTLYLQMNSLRAEDTAVYYCARSYFTSGFYDYWGQGTLVTVSSTSGQAGQHHHHHHGAYPYDVPDYAS
notes: as for B1
B6: ET200-030 (scFv)
scFv: QSVVTQPPSVSGAPGQRVTISCTGSSSNIGAGYDVNWYQQFPGTAPKLLIYGNSNRPSGVPDRFSGSKSGTSASLAITGLQAEDEADYYCQSYDSSLSGSYVFGTGTKVTVLGSRGGGGSGGGGSGGGGSLEMAQMQLVQSGAEVKKPGASVKVSCKASGYTLTELSMHWVRQAPGKGLEWMGGFDPEDGETIYAQKFQGRVTMTEDTSTDTAYMELSSLRSEDTAVYYCARMSSMYYDWGQGTLVTVSSTSGQAGQHHHHHHGAYPYDVPDYAS
notes: as for B1
B7: ET200-002 (scFv)
scFv: NFMLTQPHSVSESPGKTVTISCTRSSGSIASNYVQWYQQRPGSAPTTVIYEDNQRPSGVPDRFSGSIDSSSNSASLTISGLKTEDEADYYCQSYDSSNSVVFGGGTKLTVLGSRGGGGSGGGGSGGGGSLEMAQVQLVQSGTEVKKPGASVRVACKASGYPFNKYDINWVRQAPGQGLEWMGGIIPIFRTTNYAQKFQGRVTITADESTSTAYMELSSLRSEDTAVYYCAREWFYWDIWGQGTLVTVSSTSGQAGQHHHHHHGAYPYDVPDYAS
notes: as for B1
B8: ET200-031 (scFv)
scFv: SYVLTQPPSVSVAPGKTARITCGGNNIGSKSVHWYQQKPGQAPVLVIYYDSDRPSGIPERFSGSNSGNTATLTISRVEAGDEADYYCQVWDSSSDYVFGTGTKVTVLGSRGGGGSGGGGSGGGGSLEMAEVQLVETGGGLVKPGGSLRLSCAASGFTVSDYYMSWIRQAPGKGLEWISYISGSGNSIYYADSVKGRFTISRDNAKNSLDLQMTSLRAEDTAVYYCARSTKFDYWGQGTLVTVSSTSGQAGQHHHHHHGAYPYDVPDYAS
notes: screened as phage clone; entry is VL-linker-VH-His tag-HA tag; also called ET200-31
B9: ET200-032 (scFv)
scFv: LPVLTQPPSASGTPGQRVTISCSGSSSNVGSYTVNWYRQLPGTAPTLLIYNNNQRPSGVPDRFSDSKSGTSASLTISGLQPEDEADYYCAAWDDRLGGYVFGTGTKVTVLGSRGGGGSGGGGSGGGGSLEMAEVQLVQSGAEVKKPGESLKISCKGSGYSFTNYWIGWVRQMPGKGLEWMGIIYPGDSDTRYSPSFQGQVTISADKSISTAYLQWSSLKASDTAMYYCARSTGSSHMSDEWGQGTLVTVSSTSGQAGQHHHHHHGAYPYDVPDYAS
notes: as for B1
B10: ET200-033 (scFv)
scFv: NFMLTQPHSVSESPGKTVTISCTGSSGSIASNYVQWYQQRPGSAPTTVIYEDNQRPSGVPDRFSGSIDSSSNSASLTISGLKTEDEADYYCQSYDSSNHWVFGGGTKLTVLGSRGGGGSGGGGSGGGGSLEMAQVQLQQWGAGLLKPSETLSLTCAVYGGSFSGYYWSWIRQPPGKGLEWIGEITHSGRSNYNPSLKSRVTISVDTSKNQFSLKLSSVTAADTAVYYCARSSIMSDYWGQGTLVTVSSTSGQAGQHHHHHHGAYPYDVPDYAS
notes: as for B1
B11: ET200-034 (scFv)
scFv: QSVLTQPPSVSGAPGQRVTISCTGSTSNIGAGYDVHWYQQLPGTAPKLLINNNRNRPSGVPDRFSGSKSGTSATLGITGLQTGDEADYYCGTWDGSLTGAVFGGGTKLTVLGSRGGGGSGGGGSGGGGSLEMAEVQLVQSGAEVKKPGSSVKVSCKASGGTFSSYAISWVRQAPGQGLEWMGGIIPIFGTANYAQKFQGRVTITADESTSTAYMELSSLRSEDTAVYYCARGSALDHYDRWGQGTLVTVSSTSGQAGQHHHHHHGAYPYDVPDYAS
notes: as for B1
B12: ET200-038 (scFv)
scFv: QSVLTQPPSVSGAPGQRVTISCTGSSSNIGAGFDVHWYQLLPGTAPKLLIYANSNRPSGVPDRFSGSKSGTSASLAITGLLAEDEADYYCQSYDSSLSGVVFGGGTKLTVLGSRGGGGSGGGGSGGGGSLEMAQVQLVQSGAEVKKPGSSVKVSCKASGGTFSSYAISWVRQAPGQGLEWMGGIIPIFGTANYAQKFQGRVTITADESTSTAYMELSSLRSEDTAVYYCARGASFDRHDNWGQGTLVTVSSTSGQAGQHHHHHHGAYPYDVPDYAS
notes: as for B1
B13: ET200-040 (scFv)
scFv: QSVLTQPPSVSGAPGQRVTISCTGSSSNIGAGYDVHWYQQLPGTAPKLLIYGNSNRPSGVPDRFSGSKSGTSASLAITGLQAEDEADYYCQSYDSSLSGYVFGTGTKVTVLGSRGGGGSGGGGSGGGGSLEMAQVQLVQSGAEVKKPGASVKVSCKVSGYTLTELSMHWVRQAPGKGLEWMGGFDPEDGETIYAQKFQGRVTMTEDTSTDTAYMELSSLRSEDTAVYYCARYSGVYYDWGQGTLVTVSSTSGQAGQHHHHHHGAYPYDVPDYAS
notes: as for B1
B14: ET200-041 (scFv)
scFv: NFMLTQPHSVSGSPGKTVTISCTGSSGSIADNFVQWYQQRPGGVPTTVIFNDDERPSGVPDRFSGSIDTSSNSASLTISGLKTEDEADYYCQSYDNNNRGVFGGGTKLTVLGSRGGGGSGGGGSGGGGSLEMAQVQLVQSGAEVKKPGSSVKVSCKASGGTFSSYAISWVRQAPGQGLEWMGWMNPNSGNTGYAQKFQGRVTMTRNTSISTAYMELSNLRSEDTAVYYCARYYSYGYDWGQGTLVTVSSTSGQAGQHHHHHHGAYPYDVPDYAS
notes: as for B1
B15: ET200-003 (scFv)
scFv: QSVLTQPPSVSVSPGQTASISCSGNKLGTKYVYWYQKRPGQSPVLVMYEDNQRPSGIPERFSGSNSGNTATLTIRGTQTVDEADYYCQAWDSDTFVVFGGGTKVTVLGSRGGGGSGGGGSGGGGSLEMAEVQLVETGGGVVQPGRSLRLSCAASGFTFSSYGMHWVRQAPGKGLEWVAVISHDGSNKYYADSVKGRFTISRDNSKDTLYLQMNSLRGEDTAVYYCARSNQWSGYFSFDYWGQGTLVTVSSTSGQAGQHHHHHHGAYPYDVPDYAS
notes: as for B1

target: T1, FcRL4, overexpressed on 3T3 cells; assay: phage clone on 3T3-FcRL4 cells

| Binder | binding result |
| --- | --- |
| B1 | no binding |
| B2 | no binding |
| B3 | no binding |
| B4 | no binding |
| B5 | no binding |
| B6 | no binding |
| B7 | no binding |
| B8 | no binding |
| B9 | no binding |
| B10 | no binding |
| B11 | no binding |
| B12 | no binding |
| B13 | no binding |
| B14 | no binding |
| B15 | no binding |

target: T2, FcRL3, overexpressed on 3T3 cells; assay: phage clone on 3T3-FcRL3 cells

| Binder | binding result |
| --- | --- |
| B1 | no binding |
| B2 | no binding |
| B3 | no binding |
| B4 | no binding |
| B5 | no binding |
| B6 | no binding |
| B7 | no binding |
| B8 | no binding |
| B9 | no binding |
| B10 | no binding |
| B11 | no binding |
| B12 | no binding |
| B13 | no binding |
| B14 | no binding |
| B15 | no binding |
